Data as given in US20220313607A1.

How the values were obtained:
[1] = molecular target: Recombinant TTR variant TTR_S52P; experiment: SPR (ProteOn), Amyposomes flowed over immobilised aggregates; concentration as exposed PA; TTR aggregates
[2] = molecular target: Human Beta-Amyloid (1-40) (human); experiment: SPR (ProteOn), Amyposomes flowed over immobilised fibrils; concentration as exposed PA; Aβ1-40 fibrils
[3] = molecular target: Recombinant TTR variant TTR_S52P; experiment: cell-based or functional assay
[4] = molecular target: Recombinant β2-microglobulin variant β2m_D76N (Pongo pygmaeus (Bornean orangutan)) (UniProt P16213); experiment: cell-based or functional assay
[5] = molecular target: Human Beta-Amyloid (1-40) (human); experiment: cell-based or functional assay
[6] = molecular target: Truncated amyloidogenic form of Serum Amyloid A, SAA(1-76) (Homo sapiens (Human)) (UniProt P0DJI8); experiment: cell-based or functional assay
Sequence of UniProt P0DJI8 (P0DJI8 other isoform, or with tags, fused parts or gaps limits assumed): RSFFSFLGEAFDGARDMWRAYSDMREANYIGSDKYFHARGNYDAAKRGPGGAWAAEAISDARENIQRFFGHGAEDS

[7] = molecular target: Recombinant β2-microglobulin variant β2m_ΔN6 (Pongo pygmaeus (Bornean orangutan)) (UniProt P16213); experiment: cell-based or functional assay

Sequence of Human Beta-Amyloid (1-40) (human) (peptide, as listed by the source): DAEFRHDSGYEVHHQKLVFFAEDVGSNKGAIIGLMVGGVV

- Kd [1]: 14.2 µM
- Kd [2]: 0.12 µM
- ThT fluorescence, aggregation with respect to protein alone, TTR:Amyposomes 1:50 [3]: 40%
- ThT fluorescence, residual aggregates after 5 h, TTR:Amyposomes 1:50 [3]: 5%
- ThT fluorescence, final aggregation extent with respect to protein alone, D76N:Amyposomes 1:50 [4]: 36%
- ThT fluorescence, residual aggregates after 3 days, protein:Amyposomes 1:30 and 1:50 [4]: 15%
- ThT fluorescence, residual aggregates after 24 h, peptide:Amyposomes 1:50 [5]: 40%
- ThT fluorescence, residual aggregates after 5 days, peptide:Amyposomes 1:50 [5]: 10%
- ThT fluorescence, residual aggregates after 72 h, protein:Amyposomes 1:50 [6]: 30%
- ThT fluorescence, aggregation extent with respect to protein alone, protein:Amyposomes 1:50 [7]: 20%
- ThT fluorescence, residual aggregates, protein:Amyposomes 1:50 [7]: 50%
Substance: Amyposomes (liposomes composed of sphingomyelin/cholesterol, functionalized with phosphatidic acid and with mApoE peptide covalently linked to the outer surface)
